Measured values as given in patent publication US20260265394A1 (CARTESIAN THERAPEUTICS, published 2026).

Legend:
soluble BCMA [1] = molecular target: T1, soluble BCMA (UniProt Q02223 1-54, limits assumed); assay: titration, '% of Max Binding' against 'Log Conc (nM)'; apparent affinity of anti-BCMA CAR to soluble BCMA; the text does not describe the assay
T1 sequence (looked up): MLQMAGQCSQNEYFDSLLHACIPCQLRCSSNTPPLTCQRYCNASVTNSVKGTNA

soluble BCMA [2] = molecular target: T1, soluble BCMA; assay: apparent affinity of anti-BCMA CAR to soluble BCMA (FIG. 10A); method not described

B1: anti-BCMA scFv1 (as CAR), Example 16 (scFv)
scFv: DIVLTQSPPSLAMSLGKRATISCRASESVTILGSHLIHWYQQKPGQPPTLLIQLASNVQTGVPARFSGSGSRTDFTLTIDPVEEDDVAVYYCLQSRTIPRTFGGGTKLEIKGSTSGSGKPGSGEGSTKGQIQLVQSGPELKKPGETVKISCKASGYTFTDYSINWVKRAPGKGLKWMGWINTETREPAYAYDFRGRFAFSLETSASTAYLQINNLKYEDTATYFCALDYSYAMDYWGQGTSVTVSS
What does the source list for B1?
EC50 (read off the curve) (soluble BCMA [1]): ~10 nM; Kd (soluble BCMA [2]): 3.2 nM
